Read-outs that look alike come from different tables or passages of the source.
T1: human TNFR2 expressed on cells (CHO.hHFB3 / CHO.hTNFR2 cells; primary human T cells) (human, UniProt P20333 23-461)
T1 chain: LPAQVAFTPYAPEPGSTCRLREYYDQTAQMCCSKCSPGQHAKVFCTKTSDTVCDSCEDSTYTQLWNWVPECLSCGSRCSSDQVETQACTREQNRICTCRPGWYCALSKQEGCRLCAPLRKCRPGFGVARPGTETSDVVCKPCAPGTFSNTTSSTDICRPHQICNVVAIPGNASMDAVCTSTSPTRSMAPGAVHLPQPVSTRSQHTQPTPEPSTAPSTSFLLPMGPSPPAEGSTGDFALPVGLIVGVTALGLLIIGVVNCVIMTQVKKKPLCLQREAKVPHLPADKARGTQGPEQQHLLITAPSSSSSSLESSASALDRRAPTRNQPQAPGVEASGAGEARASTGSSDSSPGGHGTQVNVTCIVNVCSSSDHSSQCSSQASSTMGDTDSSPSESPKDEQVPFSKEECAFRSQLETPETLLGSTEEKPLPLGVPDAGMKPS

T2: rhesus monkey TNFR2 expressed on CHO cells (CHO.mkHFB3) (rhesus monkey, UniProt F7GUU0 22-457)
T2 chain: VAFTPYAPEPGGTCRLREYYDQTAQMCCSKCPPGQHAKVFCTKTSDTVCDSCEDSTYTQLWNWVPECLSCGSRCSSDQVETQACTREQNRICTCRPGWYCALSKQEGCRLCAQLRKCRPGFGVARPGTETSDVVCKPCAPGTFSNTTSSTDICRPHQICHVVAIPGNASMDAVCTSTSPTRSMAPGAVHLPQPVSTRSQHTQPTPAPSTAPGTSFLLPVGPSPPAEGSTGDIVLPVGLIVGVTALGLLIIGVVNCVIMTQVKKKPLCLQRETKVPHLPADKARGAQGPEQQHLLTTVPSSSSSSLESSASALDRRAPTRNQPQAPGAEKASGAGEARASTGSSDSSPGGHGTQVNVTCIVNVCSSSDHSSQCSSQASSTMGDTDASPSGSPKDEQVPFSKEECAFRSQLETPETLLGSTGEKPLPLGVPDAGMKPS

T3: His-tagged recombinant human TNFR2 (human, UniProt P20333 23-257)
T3 chain: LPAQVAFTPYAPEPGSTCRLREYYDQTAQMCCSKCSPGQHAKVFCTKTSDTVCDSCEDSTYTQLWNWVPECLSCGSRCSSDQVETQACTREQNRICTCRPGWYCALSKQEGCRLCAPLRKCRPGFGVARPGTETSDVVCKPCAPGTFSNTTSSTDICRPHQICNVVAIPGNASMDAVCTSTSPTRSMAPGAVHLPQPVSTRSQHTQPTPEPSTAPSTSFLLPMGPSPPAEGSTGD


Tests used:
[1] = biological target: T1, human TNFR2 expressed on cells …; assay: FACS cell binding
[2] = biological target: T1, human TNFR2 expressed on cells …; assay: FACS cell binding; IgG1AA format
[3] = biological target: T2, rhesus monkey TNFR2 expressed on CHO …; assay: FACS cell binding
[4] = biological target: T3, His-tagged recombinant human TNFR2; assay: Octet BLI
[5] = biological target: T2, rhesus monkey TNFR2 expressed on CHO …; assay: FACS cell binding
[6] = biological target: T1, human TNFR2 expressed on cells …; assay: FACS cell binding
[7] = biological target: T3, His-tagged recombinant human TNFR2; assay: ELISA
[8] = biological target: T3, His-tagged recombinant human TNFR2; assay: BLI (AHC biosensor)
[9] = biological target: T2, rhesus monkey TNFR2 expressed on CHO …; assay: FACS cell binding
[10] = biological target: T1, human TNFR2 expressed on cells …; assay: FACS cell binding; IgG1AA format

EC50 [1] [nM] | EC50 [2] [nM] | EC50 [3] [nM] | Kd [4] [nM] | EC50 [5] [nM] | EC50 [6] [nM] | EC50 [7] [nM] | Kd [8] [nM] | EC50 [9] [nM] | EC50 [10] [nM] | Binder
1.77 | 2.9 | 0.7 | 2.8 | – | – | – | – | – | – | HFB3-14hz1c-hG1 (humanized monoclonal antibody) (antibody, V domains shown) VH: QVQLVQSGAEVKKPGSSVKVSCKASGYTFTDYYMNWVRQAPGQGLEWMGDINPNDGGTTYAQKFQGRVTITADESTSTAYMELSSLRSEDTAVYFCAREGNYYAYDVRVWYFDVWGQGTTVTVSS VL: DIQMTQSPSSLSASVGDRVTITCGASQDIITYLNWYQQKPGKAVKLLIYSTSSLNSGVPSRFSGSGSGTDFTLTISSLQPEDFATYYCQQYSELPYTFGGGTKVELKR
– | – | – | – | 4.85 | 4.17 | 49.8 | 4.2 | – | – | HFB3-18-hG1 (mouse monoclonal antibody) (antibody, V domains shown) VH: EVKLEESGGGLVQPGGSMKLSCAASGFTFSDAWMDWVRQSPEKGLEWVAEVRNKANNHATYYAESVKGRFTISRDDSKSSVYLQMNSLRAEDTGIYYCTRSVGGYGTTYWYFDVWGTGTTVTVSS VL: DIVMTQSPSSLSVSAGEKVTMSCKSSQNLLNSGNQKNYLAWYQQKPGQPPKLLIFGASTRESGVPDRFTGSGSGTDFTLTISSVQAEDLAVYYCQSEHSYPYTFGGGTKLEIKR

The next lines start with the binder.

Binder | EC50 [1] [nM] | EC50 [2] [nM] | EC50 [3] [nM] | Kd [4] [nM] | EC50 [5] [nM] | EC50 [6] [nM] | EC50 [7] [nM] | Kd [8] [nM] | EC50 [9] [nM] | EC50 [10] [nM]
HFB3-1-hG1 (mouse monoclonal antibody) (antibody, V domains shown) VH: EFQLQQSGPELVKPGASVKISCKASSYSFTDYNMNWVKQSNGKSLEWIGIIFPKYGTTSYNQKFKGKATLTVDQSSSTAYMQLNSLTSEDSAVYYCATDGGTWYFDVWGTGTTVTVSS VL: QIVLTQSPALMSASPGEKVTMTCSASSSVTYMYWYQQKPRSSPKPWIYLTSNLASGVPARFSGSGSGTSYSLTISSMEAEDAATYYCQQWSSNPPTFGSGTKLEIKR | – | – | – | 6.3 | 0.6 | 0.48 | 0.06 | 1.4 | 5.37 | 0.905
HFB3-14-hG1 (mouse monoclonal antibody) (antibody, V domains shown) VH: EVQLQQSGPELVKPGASVRISCKASGYTFTDYYMNWVKQSHGKSLEWIGDINPNDGGTTYSQKFKGKATLTVDKSSSTAYMELRSLTSEDSAVYFCAREGNYYAYDVRVWYFDVWGTGTTVTVSS VL: DIQMTQSPASLSVSVGETVTITCRSSENIYSNLAWYQQKQGKSPQLLVYAATNLADGVPSRFSGSGSGTQYSLKINSLQSEDFGSYYCQHFWGTPWTFGGGTKLEIKR | – | – | 2.15 | – | 2.13 | – | – | – | – | –
HFB3-1hz6-hG1 (humanized monoclonal antibody) (antibody, V domains shown) VH: QVQLVQSGAELKKPGASVKVSCKASSYSFTDYNMNWVRQAPGQSLEWMGIIFPKYGTTSYAQKLQGRVTLTTDTSTSTAYMELRSLRSDDTAVYYCATDGGTWYFDVWGTGTTVTVSS VL: DIQLTQSPSFLSASVGDRVTITCRASSSVTYMYWYQQKPGKAPKPWIYLTSNLASGVPSRFSGSGSGTEYTLTISSLQPEDAATYYCQQWSSNPPTFGSGTKLEIKR | – | – | – | 15.2 | – | – | – | – | 19.1 | 4.07

Reference: patent US20230045791A1 (published 2023)
